These results are taken from article PMC10213050 (Nature Communications, 2023).

One data set concerns the target hRad51;RNF20N (Homo sapiens;Homo sapiens, UniProt Q06609;Q5VTR2 1-339;1-300, |). Put plainly: pull-down; ATP; RNF20N stimulates hRad51 binding and is co-captured; Pull-down: 42 mM Tris-HCl pH 7.5, 15 mM KCl, 90 mM NaCl, 2 mM ATP, 1 mM EDTA, 0.5% NP-40, 1 mM DTT, 20 ug/mL BSA, 5% glycerol, 37 C; EMSA: 42 mM MOPS pH 7.2, 3. The note with it: protein: recombinant;recombinant; tags: 6xHis or GST-cleaved;GST (pGEX-6p-1); label: 5'-biotin. (In general: A gel shift assay detects complexes by their altered migration in electrophoresis.)

The next data set concerns the target Rad51;Bre1 (Saccharomyces cerevisiae …, UniProt P25454;Q07457 1-400;1-700, |). Nature of the data set: pull-down; ATP; Bre1 stimulates Rad51 binding and is co-captured; Pull-down: 42 mM Tris-HCl pH 7.5, 15 mM KCl, 90 mM NaCl, 2 mM ATP, 1 mM EDTA, 0.5% NP-40, 1 mM DTT, 20 ug/mL BSA, 5% glycerol, 37 C; EMSA: 42 mM MOPS pH 7.2, 3. Particulars: protein: recombinant;recombinant; tags: 6xHis (pET30a) or GST-cleaved;6xHis; label: 5'-biotin.

The target of another data set is Srs2 (Saccharomyces cerevisiae (yeast), UniProt P12954 1-1174). Put plainly: pull-down; 200 nM ssDNA; Pull-down: 42 mM Tris-HCl pH 7.5, 15 mM KCl, 90 mM NaCl, 2 mM ATP, 1 mM EDTA, 0.5% NP-40, 1 mM DTT, 20 ug/mL BSA, 5% glycerol, 37 C; EMSA: 42 mM MOPS pH 7.2, 3. Particulars: protein: recombinant; tags: GST (pGEX-6p-1); label: 5'-biotin.
The next data set addresses RNF20N (Homo sapiens, UniProt Q5VTR2 1-300). Put plainly: pull-down; RNF20N alone; Pull-down: 42 mM Tris-HCl pH 7.5, 15 mM KCl, 90 mM NaCl, 2 mM ATP, 1 mM EDTA, 0.5% NP-40, 1 mM DTT, 20 ug/mL BSA, 5% glycerol, 37 C; EMSA: 42 mM MOPS pH 7.2, 3. The note with it: protein: recombinant; tags: GST (pGEX-6p-1); label: 5'-biotin.
In a further data set the target is T1, Bre1 (Saccharomyces cerevisiae (yeast), UniProt Q07457 1-700).
T1 sequence: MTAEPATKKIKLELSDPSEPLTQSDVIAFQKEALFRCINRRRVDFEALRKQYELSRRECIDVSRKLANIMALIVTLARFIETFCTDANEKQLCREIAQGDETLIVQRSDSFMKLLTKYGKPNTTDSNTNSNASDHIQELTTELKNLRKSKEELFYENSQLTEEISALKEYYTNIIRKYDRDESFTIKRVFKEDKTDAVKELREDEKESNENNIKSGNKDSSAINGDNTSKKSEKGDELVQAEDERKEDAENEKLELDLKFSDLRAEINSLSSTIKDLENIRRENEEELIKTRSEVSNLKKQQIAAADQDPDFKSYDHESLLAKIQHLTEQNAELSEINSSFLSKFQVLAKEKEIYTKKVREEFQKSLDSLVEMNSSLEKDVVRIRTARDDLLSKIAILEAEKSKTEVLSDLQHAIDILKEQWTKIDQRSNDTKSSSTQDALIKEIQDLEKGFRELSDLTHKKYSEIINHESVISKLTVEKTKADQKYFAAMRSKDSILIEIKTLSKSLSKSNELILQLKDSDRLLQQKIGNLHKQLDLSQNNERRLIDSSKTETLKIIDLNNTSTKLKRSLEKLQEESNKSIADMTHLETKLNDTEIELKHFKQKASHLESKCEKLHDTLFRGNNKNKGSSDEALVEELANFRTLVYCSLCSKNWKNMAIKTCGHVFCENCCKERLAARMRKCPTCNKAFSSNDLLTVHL
Nature of the data set: pull-down; Bre1 alone; Pull-down: 42 mM Tris-HCl pH 7.5, 15 mM KCl, 90 mM NaCl, 2 mM ATP, 1 mM EDTA, 0.5% NP-40, 1 mM DTT, 20 ug/mL BSA, 5% glycerol, 37 C; EMSA: 42 mM MOPS pH 7.2, 3. The note with it: protein: recombinant; tags: 6xHis; label: 5'-biotin.

For another data set, the target named is hRad51 (Homo sapiens, UniProt Q06609 1-339). Put plainly: pull-down; ATP; Pull-down: 42 mM Tris-HCl pH 7.5, 15 mM KCl, 90 mM NaCl, 2 mM ATP, 1 mM EDTA, 0.5% NP-40, 1 mM DTT, 20 ug/mL BSA, 5% glycerol, 37 C; EMSA: 42 mM MOPS pH 7.2, 3. The note with it: protein: recombinant; tags: 6xHis or GST-cleaved; chain copies: 10; label: 5'-biotin.
The target of the next data set is Rad51 (Saccharomyces cerevisiae (yeast), UniProt P25454 1-400). The description is as above. The note with it: protein: recombinant; tags: 6xHis (pET30a) or GST-cleaved; label: 5'-biotin.
Rad51, sequence (P25454 whole entry): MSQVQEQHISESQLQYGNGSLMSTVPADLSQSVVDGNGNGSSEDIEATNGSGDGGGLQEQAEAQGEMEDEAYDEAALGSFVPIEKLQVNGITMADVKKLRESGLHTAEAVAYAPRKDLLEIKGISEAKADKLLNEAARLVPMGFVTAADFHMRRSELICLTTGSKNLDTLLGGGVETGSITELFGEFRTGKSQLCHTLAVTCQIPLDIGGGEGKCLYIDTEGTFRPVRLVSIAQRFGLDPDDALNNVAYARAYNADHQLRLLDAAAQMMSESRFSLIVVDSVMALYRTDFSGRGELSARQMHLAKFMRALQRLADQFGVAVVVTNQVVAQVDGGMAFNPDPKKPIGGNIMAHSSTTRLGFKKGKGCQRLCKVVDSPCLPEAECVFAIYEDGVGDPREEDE

RNF20N, sequence (Q5VTR2 1-300): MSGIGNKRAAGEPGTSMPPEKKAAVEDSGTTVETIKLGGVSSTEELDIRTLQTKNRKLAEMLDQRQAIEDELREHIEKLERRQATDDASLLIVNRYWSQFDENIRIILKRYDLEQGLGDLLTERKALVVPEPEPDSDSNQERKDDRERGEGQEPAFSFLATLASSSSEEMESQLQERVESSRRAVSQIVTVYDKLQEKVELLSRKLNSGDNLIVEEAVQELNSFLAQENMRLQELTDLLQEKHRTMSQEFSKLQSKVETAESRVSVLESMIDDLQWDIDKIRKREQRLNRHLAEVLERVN
hRad51;RNF20N, sequence (Q06609 whole entry, chain 1 of 2): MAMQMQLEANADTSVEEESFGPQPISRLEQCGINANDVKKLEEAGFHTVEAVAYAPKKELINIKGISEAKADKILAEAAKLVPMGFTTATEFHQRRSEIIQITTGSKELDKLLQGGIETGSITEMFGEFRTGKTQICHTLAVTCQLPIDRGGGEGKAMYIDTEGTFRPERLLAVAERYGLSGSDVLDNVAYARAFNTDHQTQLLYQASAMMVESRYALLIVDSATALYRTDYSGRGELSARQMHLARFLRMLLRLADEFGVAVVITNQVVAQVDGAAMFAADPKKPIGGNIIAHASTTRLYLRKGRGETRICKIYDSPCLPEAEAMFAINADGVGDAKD
hRad51;RNF20N, sequence (Q5VTR2 1-300, chain 2 of 2): as the sequence (Q5VTR2 1-300) above
hRad51, sequence (Q06609 whole entry): as the sequence (Q06609 whole entry, chain 1 of 2) above
Rad51;Bre1, sequence (P25454 whole entry, one chain of several): as the sequence (P25454 whole entry) above
Srs2, sequence (P12954 whole entry): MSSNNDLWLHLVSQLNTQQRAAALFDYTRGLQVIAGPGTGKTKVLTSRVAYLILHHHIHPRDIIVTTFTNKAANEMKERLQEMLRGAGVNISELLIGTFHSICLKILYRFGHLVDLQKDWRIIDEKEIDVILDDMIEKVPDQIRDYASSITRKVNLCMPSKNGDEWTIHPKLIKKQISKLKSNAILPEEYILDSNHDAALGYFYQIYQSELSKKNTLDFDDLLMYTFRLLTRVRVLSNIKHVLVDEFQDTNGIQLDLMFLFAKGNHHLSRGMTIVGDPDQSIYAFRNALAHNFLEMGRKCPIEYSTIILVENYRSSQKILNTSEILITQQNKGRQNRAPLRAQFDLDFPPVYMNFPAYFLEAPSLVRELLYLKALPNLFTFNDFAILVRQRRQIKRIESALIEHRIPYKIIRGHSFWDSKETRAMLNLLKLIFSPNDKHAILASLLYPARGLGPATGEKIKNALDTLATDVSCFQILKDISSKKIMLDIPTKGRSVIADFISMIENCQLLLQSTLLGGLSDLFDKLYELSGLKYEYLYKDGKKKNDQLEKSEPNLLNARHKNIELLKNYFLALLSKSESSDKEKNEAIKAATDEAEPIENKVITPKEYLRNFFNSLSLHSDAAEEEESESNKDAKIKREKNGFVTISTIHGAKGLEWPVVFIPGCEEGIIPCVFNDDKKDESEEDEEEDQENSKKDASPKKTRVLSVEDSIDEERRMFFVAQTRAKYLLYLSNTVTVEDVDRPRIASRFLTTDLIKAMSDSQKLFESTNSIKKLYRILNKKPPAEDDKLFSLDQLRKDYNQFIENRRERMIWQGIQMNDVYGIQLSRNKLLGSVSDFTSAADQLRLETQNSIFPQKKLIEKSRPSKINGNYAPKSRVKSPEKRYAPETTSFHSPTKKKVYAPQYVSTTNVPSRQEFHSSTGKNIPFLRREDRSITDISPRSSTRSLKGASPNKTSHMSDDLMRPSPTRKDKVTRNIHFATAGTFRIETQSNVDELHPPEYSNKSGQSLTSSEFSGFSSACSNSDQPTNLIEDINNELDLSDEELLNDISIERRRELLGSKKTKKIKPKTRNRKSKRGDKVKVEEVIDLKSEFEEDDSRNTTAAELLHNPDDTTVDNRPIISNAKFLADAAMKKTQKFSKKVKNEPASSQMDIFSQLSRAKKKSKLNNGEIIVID

B1: 90-nt ssDNA (ssDNA)
DNA: CGACAGGTCATGGCCGTACATGATATCCTCGAGCGTCCTGTTGCAACTTACACTCTGAATAGCCGAATTCTTAGGGTTAGGGTTAACA
Turning to B1, the binding result in the data set with hRad51;RNF20N is on record as “binds”; with Rad51;Bre1 it was “binds”; in the data set with Srs2 it was “binds”; in the data set with RNF20N it was “no binding”; with Bre1 it was “no binding”; in the data set with hRad51, “binds”. In the data set with Rad51, the binding result is “binds”.
